According to US7470669B2, “Isolated polypeptide comprising a leptin fragment” (Serono Genetics Institute, S.A., priority 1999, dated 2008):

System: LSR
Test: LSR activity (oleate-induced 125I-LDL binding, uptake, degradation) in PLC cells
Type: cell-based, human
Details: 10 ng/mL recombinant leptin
Protocol: FIGS. 5A, 5B, 5C, and 5D show the stimulatory effect of leptin on LSR activity in PLC and suppression of this effect by 81B antibody. For FIGS. 5A, 5B, and 5C, cultured PLC cells were incubated at 37° C. for 30 min with increasing concentrations of human recombinant leptin in Buffer A. After this, 0.5 mM oleate and 20 μg/mL ^125I-LDL were added, and cells were further incubated at 37° C. for 2 h. Cells were washed, and the amount of oleate-induced ^125I-LDL bound (5A), internalized (5B) and degraded (5C) were measured. […] After washing, the amount of ^125I-LDL binding was determined, and is shown here as the mean±SD of triplicate determinations.
FIGS. 8A and 8B show the effect of mouse or human leptin on LSR activity in primary cultures of rat hepatocytes or a human liver cell line (PLC). […] The cells were washed, and the amount of oleate-induced ^125I-LDL bound and degraded was measured as described previously (Bihain, B. E., and Yen, F. T. (1992). Free fatty acids activate a high-affinity saturable pathway for degradation of low density lipoproteins infibroblasts from a subject homozygous for familial hypercholesterolemia. Biochemistry 31, 4628-4636.
FIGS. 35A and 35B show graphs of LSR activity and mRNA expression measured in PLC cells preincubated 24 h with leptin. […] Cells were washed, and the amount of oleate-induced ^125I-LDL binding was measured as described previously. […]

B1: mouse leptin: recombinant mouse leptin, laboratory-prepared or commercial (Sigma, Calbiochem) (protein, UniProt P41160 22-167, looked up)
Leptin: VPIQKVQDDTKTLIKTIVTRINDISHTQSVSAKQRVTGLDFIPGLHPILSLSKMDQTLAVYQQVLTSLPSQNVLQIANDLENLRDLLHLLAFSKSCSLPQTSGLQKPESLDGVLEASLYSTEVVALSRLQGSLQDILQQLDVSPEC
  stimulation of LSR activity in human PLC cells: inactive
